Seven molecules from article doi:10.1101/2021.11.13.468331 (bioRxiv, 2021) can be followed below.

To fix the notation:
B6: full-length b5R released from the linker-cleaved SCD1-cyt b5-b5R fusion (enzyme, mouse)
chain: GMGAQLSTLSHVVLSPVWFIYSLFMKLFQRSTPAITLENPDIKYPLRLIDKEVISPDTRRFRFALPSPQHILGLPIGQHIYLSTRIDGNLVIRPYTPVSSDDDKGFVDLVVKVYFKDTHPKFPAGGKMSQYLENMKIGDTIEFRGPNGLLVYQGKGKFAIRADKKSNPVVRTVKSVGMIAGGTGITPMLQVIRAVLKDPNDHTVCYLLFANQSEKDILLRPELEELRNEHSARFKLWYTVDKAPDAWDYSQGFVNEEMIRDHLPTPGEEPLILMCGPPPMIQFACLPNLERVGHPKERCFTF

Read-outs that look alike come from different tables or passages of the source.

Test in all cases: SEC
Assay [1] has as its target SCD1 released from the linker-cleaved SCD1-cyt b5 fusion (mouse).
Assay [2] deals with T1, full-length b5R released from the linker-cleaved cyt b5-b5R fusion (mouse, UniProt Q9DCN2 1-301).
T1 sequence: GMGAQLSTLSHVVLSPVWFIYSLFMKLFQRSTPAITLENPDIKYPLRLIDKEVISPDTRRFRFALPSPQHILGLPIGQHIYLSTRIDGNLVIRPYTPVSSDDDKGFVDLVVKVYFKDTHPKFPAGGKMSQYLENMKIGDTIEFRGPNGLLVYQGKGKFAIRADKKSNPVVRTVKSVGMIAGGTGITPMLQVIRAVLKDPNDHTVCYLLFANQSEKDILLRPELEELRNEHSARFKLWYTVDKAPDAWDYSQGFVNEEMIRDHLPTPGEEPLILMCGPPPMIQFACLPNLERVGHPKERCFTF

The target of assay [3] is T1, full-length b5R released from the …. This is another data set of the same source.
For assay [4], the target named is T2, SCD1 released from the linker-cleaved SCD1-cyt b5-b5R fusion (mouse, UniProt P13516 1-355).
T2 sequence: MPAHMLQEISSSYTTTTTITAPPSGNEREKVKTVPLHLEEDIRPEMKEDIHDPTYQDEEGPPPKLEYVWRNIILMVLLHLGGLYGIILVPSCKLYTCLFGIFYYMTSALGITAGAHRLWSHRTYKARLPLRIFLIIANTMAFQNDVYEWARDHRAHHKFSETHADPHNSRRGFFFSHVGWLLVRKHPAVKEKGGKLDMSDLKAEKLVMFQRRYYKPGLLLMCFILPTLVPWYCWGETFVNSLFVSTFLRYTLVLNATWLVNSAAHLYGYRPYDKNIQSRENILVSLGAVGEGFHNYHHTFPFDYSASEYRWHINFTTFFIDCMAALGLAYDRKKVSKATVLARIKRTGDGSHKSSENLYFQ

The target of assay [5] is B6.

“full-length cyt b5 M126A released from the linker-cleaved SCD1-cyt b5 fusion (from UniProt P56395 1-134) (natural protein)”: the percent of cyt b5 dissociated from the complex in assay [1] came out at 50%.

B1: full-length cyt b5 L121 Trp mutant released from the linker-cleaved cyt b5-b5R fusion (natural protein, mouse)
chain: MAGQSDKDVKYYTLEEIQKHKDSKSTWVILHHKVYDLTKFLEEHPGGEEVLREQAGGDATENFEDVGHSTDARELSKTYIIGELHPDDRSKIAKPSDTLITTVESNSSWWTNWVIPAISAWAVALMYRLYMAEDENLYFQ
Take B1: the binding result in assay [2] was “binds”.

B2: full-length cyt b5 A124 Trp mutant released from the linker-cleaved cyt b5-b5R fusion (natural protein, mouse)
chain: MAGQSDKDVKYYTLEEIQKHKDSKSTWVILHHKVYDLTKFLEEHPGGEEVLREQAGGDATENFEDVGHSTDARELSKTYIIGELHPDDRSKIAKPSDTLITTVESNSSWWTNWVIPAISALAVWLMYRLYMAEDENLYFQ
For the molecule B2, in assay [2], the binding result was “binds”.

B3: full-length cyt b5 released from the linker-cleaved cyt b5-b5R fusion (natural protein, mouse)
chain: MAGQSDKDVKYYTLEEIQKHKDSKSTWVILHHKVYDLTKFLEEHPGGEEVLREQAGGDATENFEDVGHSTDARELSKTYIIGELHPDDRSKIAKPSDTLITTVESNSSWWTNWVIPAISALAVALMYRLYMAEDENLYFQ
B3: in assay [3], the binding result is “binds”.

B4: full-length cyt b5 V123 Trp mutant released from the linker-cleaved cyt b5-b5R fusion (natural protein, mouse)
chain: MAGQSDKDVKYYTLEEIQKHKDSKSTWVILHHKVYDLTKFLEEHPGGEEVLREQAGGDATENFEDVGHSTDARELSKTYIIGELHPDDRSKIAKPSDTLITTVESNSSWWTNWVIPAISALAWALMYRLYMAEDENLYFQ
With B4, in assay [2], the binding result was “binds”.

B5: full-length cyt b5 released from the linker-cleaved SCD1-cyt b5-b5R fusion (natural protein, mouse)
chain: GMAGQSDKDVKYYTLEEIQKHKDSKSTWVILHHKVYDLTKFLEEHPGGEEVLREQAGGDATENFEDVGHSTDARELSKTYIIGELHPDDRSKIAKPSDTLITTVESNSSWWTNWVIPAISALAVALMYRLYMAEDENLYFQ
On to B5, for which the binding result in assay [4] and in assay [5] was “binds” in each case.
In the case of B6, the binding result in assay [4] is given as “binds”.
